Where a chain is given by its changes, count along the chain named.
Key:
Test in all cases: fluorescence anisotropy
[2Fe-2S]-IscR-E43A = biological target: T1, [2Fe-2S]-IscR-E43A (Escherichia coli, UniProt P0AGK8 1-162, E43A)
T1 sequence: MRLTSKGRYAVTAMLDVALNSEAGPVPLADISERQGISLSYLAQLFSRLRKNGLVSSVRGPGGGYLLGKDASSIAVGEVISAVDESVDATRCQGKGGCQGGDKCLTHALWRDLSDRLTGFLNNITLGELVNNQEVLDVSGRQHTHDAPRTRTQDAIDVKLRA

[2Fe-2S]-IscR-R59A = biological target: T2, [2Fe-2S]-IscR-R59A (Escherichia coli, UniProt P0AGK8 1-162, R59A)
T2 sequence: T1 sequence with A43E, R59A

[2Fe-2S]-IscR-S40A = biological target: T3, [2Fe-2S]-IscR-S40A (Escherichia coli, UniProt P0AGK8 1-162, S40A)
T3 sequence: T1 sequence with S40A, A43E

[2Fe-2S]-IscR wild-type = biological target: T4, [2Fe-2S]-IscR wild-type (Escherichia coli, UniProt P0AGK8 1-162)
T4 sequence: T1 sequence with A43E

B1: hya 30-mer (type 2) (dsDNA)
DNA 1: ATAAATCCACACAGTTTGTATTGTTTTGTG
DNA 2: CACAAAACAATACAAACTGTGTGGATTTAT
binding result ([2Fe-2S]-IscR-E43A): binds

B2: iscRB 30-mer (type 1) (dsDNA)
DNA 1: AAATAGTTGACCATTTTACTCGGGAATGTC
DNA 2: GACATTCCCGAGTAAAATGGTCAACTATTT
binding result ([2Fe-2S]-IscR-R59A): no binding
Kd ([2Fe-2S]-IscR-S40A): 94 ± 3 nM
Kd ([2Fe-2S]-IscR wild-type): 24 ± 1 nM
Kd ([2Fe-2S]-IscR-E43A): 21 ± 1 nM

B3: iscRBcc (symmetrical CC) (dsDNA)
DNA 1: B2 DNA 1 with T7C, T8C
DNA 2: B2 DNA 2 with A23G, A24G
binding result ([2Fe-2S]-IscR wild-type): binds

Reference: publication PMC3676455
